Results on two molecules are retold here after patent US20020160516A1, “Episomal expression vector for human gene therapy and expression system for production of proteins” (priority 1993, published 2002).

The test system of data set [1] is 107/402-T expression in HT-1376 tet-off clone. Nature of the data set: Doxycycline control of 107/402-T expression in HT-1376 tet-off clone (Western blot). The format is cell-based. To be noted: Homo sapiens, 96 h, Western blot 4 days after exposure, read-out: half-maximal inhibitory concentration for 107/402-T expression. From the text:
To prepare a human cell line in which expression of 107/402-T would be under control of doxycycline, HT-1376 human bladder carcinoma cells were sequentially transfected with three plasmid constructs: (a) pTET-OFF, which encodes the tetracycline-controlled transcriptional transactivator (tTA) under control of the CMV immediate-early promoter and the neomycin resistance gene under control of the SV40 early promoter, (b) pTRE.107/402-T, which encodes 107/402-T under control of the CMV minimal promoter and contains the tetracycline operon (binding site of tTA just upstream of the CMV minimal promoter), and (c) pCMVhygro, which encodes the hygromycin resistance gene under control of the CMV promoter. HT-1376 cells were first transfected with pTET-OFF, and neomycin resistant clones of stable transfectants were characterized by transiently transfecting clones with pTRE.luciferase in the presence or absence of doxycycline. Clones which yielded significant luciferase activity only in the absence of doxycycline (but no detectable luciferase activity in the presence of doxycycline) were then co-transfected with pTRE.107/402-T and pCMVhygro. Again, single cell clones of stable transfectants were screened for high basal levels of 107/402-T and complete turn-off of 107/402-T expression in the presence of doxycycline.
Steady-state levels of 107/402-T are achieved by 3 days. […]
(In western blotting, separated proteins are transferred to a membrane and probed.)

The target in another data set is T1, human RB (Homo sapiens, UniProt P06400).
T1 sequence (P06400 1-928): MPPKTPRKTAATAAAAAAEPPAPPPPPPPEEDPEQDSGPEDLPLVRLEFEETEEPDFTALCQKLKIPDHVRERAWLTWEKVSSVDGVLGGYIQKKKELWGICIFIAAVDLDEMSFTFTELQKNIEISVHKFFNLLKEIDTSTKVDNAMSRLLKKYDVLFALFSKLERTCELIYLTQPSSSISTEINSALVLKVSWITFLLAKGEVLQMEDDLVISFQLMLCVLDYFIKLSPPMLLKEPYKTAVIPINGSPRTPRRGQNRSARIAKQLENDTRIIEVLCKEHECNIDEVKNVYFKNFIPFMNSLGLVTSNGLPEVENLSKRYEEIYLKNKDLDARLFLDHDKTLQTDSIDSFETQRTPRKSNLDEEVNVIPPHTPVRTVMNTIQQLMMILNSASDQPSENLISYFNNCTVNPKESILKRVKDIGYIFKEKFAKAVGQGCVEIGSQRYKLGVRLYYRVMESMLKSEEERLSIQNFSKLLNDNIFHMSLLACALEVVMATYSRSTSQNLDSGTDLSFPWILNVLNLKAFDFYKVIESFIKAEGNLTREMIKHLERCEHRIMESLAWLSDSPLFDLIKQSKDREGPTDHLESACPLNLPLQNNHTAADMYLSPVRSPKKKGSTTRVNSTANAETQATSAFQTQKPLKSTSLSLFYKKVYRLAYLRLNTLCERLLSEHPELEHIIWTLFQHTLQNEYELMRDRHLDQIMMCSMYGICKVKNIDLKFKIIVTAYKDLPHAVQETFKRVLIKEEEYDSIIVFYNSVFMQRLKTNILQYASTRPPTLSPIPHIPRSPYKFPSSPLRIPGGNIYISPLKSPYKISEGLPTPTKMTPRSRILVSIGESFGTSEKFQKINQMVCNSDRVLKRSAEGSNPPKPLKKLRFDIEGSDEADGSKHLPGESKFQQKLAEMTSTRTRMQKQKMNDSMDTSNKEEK
The format is binding.

The target in another data set is T2, p107 (Homo sapiens, UniProt P28749).
T2 sequence (P28749 1-1068): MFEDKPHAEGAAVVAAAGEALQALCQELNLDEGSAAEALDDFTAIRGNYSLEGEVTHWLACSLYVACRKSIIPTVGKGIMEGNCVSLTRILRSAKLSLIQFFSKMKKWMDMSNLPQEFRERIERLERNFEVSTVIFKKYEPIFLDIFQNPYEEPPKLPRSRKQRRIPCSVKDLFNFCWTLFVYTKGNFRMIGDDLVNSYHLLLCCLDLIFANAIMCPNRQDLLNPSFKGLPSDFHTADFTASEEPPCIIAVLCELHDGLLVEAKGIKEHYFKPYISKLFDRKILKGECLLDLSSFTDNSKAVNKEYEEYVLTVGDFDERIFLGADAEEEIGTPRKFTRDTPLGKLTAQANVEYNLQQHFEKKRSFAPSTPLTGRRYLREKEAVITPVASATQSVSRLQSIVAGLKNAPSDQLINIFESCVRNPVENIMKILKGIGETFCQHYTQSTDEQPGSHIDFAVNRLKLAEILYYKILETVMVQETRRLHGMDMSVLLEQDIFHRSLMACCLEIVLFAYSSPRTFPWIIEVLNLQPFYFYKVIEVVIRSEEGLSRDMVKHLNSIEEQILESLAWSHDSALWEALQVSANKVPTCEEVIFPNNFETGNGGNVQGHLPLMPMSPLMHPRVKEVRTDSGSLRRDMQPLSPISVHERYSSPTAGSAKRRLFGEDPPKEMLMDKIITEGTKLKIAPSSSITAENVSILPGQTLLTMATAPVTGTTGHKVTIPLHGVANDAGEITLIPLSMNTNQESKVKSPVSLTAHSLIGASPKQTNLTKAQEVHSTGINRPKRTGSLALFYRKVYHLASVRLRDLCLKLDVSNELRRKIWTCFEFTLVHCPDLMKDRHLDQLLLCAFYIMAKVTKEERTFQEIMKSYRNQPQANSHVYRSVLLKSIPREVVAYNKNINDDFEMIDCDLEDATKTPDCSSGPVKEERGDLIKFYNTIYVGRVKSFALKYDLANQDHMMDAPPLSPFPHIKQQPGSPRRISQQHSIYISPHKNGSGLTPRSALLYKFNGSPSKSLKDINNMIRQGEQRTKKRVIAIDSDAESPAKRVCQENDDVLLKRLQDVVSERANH
In kind it is binding.

The next data set deals with p53 (Homo sapiens, UniProt P04637). The format is binding.
In the next data set the test system is T24 cell line. Briefly: Soft agar cloning of T24 clones expressing T antigens. To be noted: T24 single cell clones expressing T antigen (SV-T clone A7, 402-T clone G1); ± se.

In brackets after ≈: the same amount, converted by molar mass.

Chain of p53 (P04637 whole entry): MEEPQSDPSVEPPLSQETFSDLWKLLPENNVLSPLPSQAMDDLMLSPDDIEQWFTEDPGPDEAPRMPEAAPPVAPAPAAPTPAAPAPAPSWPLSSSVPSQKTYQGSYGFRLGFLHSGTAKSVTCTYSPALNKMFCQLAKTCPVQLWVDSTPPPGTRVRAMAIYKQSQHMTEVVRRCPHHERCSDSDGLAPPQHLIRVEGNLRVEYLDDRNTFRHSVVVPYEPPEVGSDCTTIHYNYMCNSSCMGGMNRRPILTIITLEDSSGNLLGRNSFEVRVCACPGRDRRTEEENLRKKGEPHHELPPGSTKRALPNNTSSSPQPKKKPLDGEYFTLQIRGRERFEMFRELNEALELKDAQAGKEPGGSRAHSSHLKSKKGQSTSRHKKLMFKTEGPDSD
Text for T24 cell line: Transformed cells were trypsinized and then passed through a 30-micron nylon filter (Tetko, Lancaster, N.Y.) to achieve a single cell suspension. The bottom layer of agar consisted of low glucose DMEM supplemented with 10% fetal calf serum and 0.6% Seaplaque agarose (FMC BioProducts, Rockland, Me.). The top layer contained serial dilutions of cells ranging between 10^3 and 10^6 in low-glucose DMEM supplemented with 10% fetal calf serum and 0.3% Seaplaque agarose.

For the molecule `C[C@H]1c2cccc(O)c2C(=O)C2=C(O)[C@]3(O)C(=O)C(C(N)=O)=C(O)[C@@H](N(C)C)[C@@H]3[C@@H](O)[C@@H]21` [doxycycline], in data set [1], the IC50 was around 0.01 ng/mL (≈ 0.0225 nM).

B1: SV-T: wild-type SV40 large T antigen (protein, UniProt P03070 1-708, looked up)
Large T antigen: MDKVLNREESLQLMDLLGLERSAWGNIPLMRKAYLKKCKEFHPDKGGDEEKMKKMNTLYKKMEDGVKYAHQPDFGGFWDATEIPTYGTDEWEQWWNAFNEENLFCSEEMPSSDDEATADSQHSTPPKKKRKVEDPKDFPSELLSFLSHAVFSNRTLACFAIYTTKEKAALLYKKIMEKYSVTFISRHNSYNHNILFFLTPHRHRVSAINNYAQKLCTFSFLICKGVNKEYLMYSALTRDPFSVIEESLPGGLKEHDFNPEEAEETKQVSWKLVTEYAMETKCDDVLLLLGMYLEFQYSFEMCLKCIKKEQPSHYKYHEKHYANAAIFADSKNQKTICQQAVDTVLAKKRVDSLQLTREQMLTNRFNDLLDRMDIMFGSTGSADIEEWMAGVAWLHCLLPKMDSVVYDFLKCMVYNIPKKRYWLFKGPIDSGKTTLAAALLELCGGKALNVNLPLDRLNFELGVAIDQFLVVFEDVKGTGGESRDLPSGQGINNLDNLRDYLDGSVKVNLEKKHLNKRTQIFPPGIVTMNEYSVPKTLQARFVKQIDFRPKDYLKHCLERSEFLLEKRIIQSGIALLLMLIWYRPVAEFAQSIQSRIVEWKERLDKEFSLSVYQKMKFNVAMGIGVLDWLRNSDDDDEDSQENADKNEDGGEKNMEDSGHETGIDSQSQGSFQAPQSSQSVHDHNQPYHICRGFTCFKKPPTPPPEPET
Regarding B1, in the data set with human RB, the “Observed signal compared to T, binding to RB” value is on record as 100%. In addition, the “Observed signal compared to T, binding to p107” value with p107 was 100%. For the same molecule, in the data set with p53, the “Observed signal compared to T, binding to p53” value stood at 100%. Also, the “soft agar cloning efficiency” value in the data set with T24 cell line is reported as 0.10%±0.02%.
